Test results reported in patent US9493781B2, “Synthetic brassica-derived chloroplast transit peptides” (DOW AGROSCIENCES LLC, priority 2012, dated 2016).

Tested on: Arabidopsis
Test: dgt-28, dgt-32, dgt-33, dgt-3, dgt-7 transformed Arabidopsis (T1, T2, T3) response to postemergence glyphosate, % visual injury
Assay type: in vivo, Arabidopsis thaliana
Conditions: 14 days after application
From the text: Transgenic T1 Arabidopsis plants containing the dgt-28 transgene were sprayed with differing rates of glyphosate. Elevated rates were applied in this study to determine the relative levels of resistance (105, 420, 1,680 or 3,360 g ae/ha). A typical 1× usage rate of glyphosate that will control non-transformed Arabidopsis is 420 g ae/ha. […] The T1 Arabidopsis plants that were used in this study were variable copy number for the dgt-28 transgene. The low copy dgt-28 T1 Arabidopsis plants were self-pollinated and used to produce T2 plants.
Results of Glyphosate Selection of Transformed dgt-28 Arabidopsis Plants. The Arabidopsis T1 transformants were first selected from the background of untransformed seed using a glufosinate selection scheme. Three flats or 30,000 seed were analyzed for each T1 construct. The T1 plants selected above were molecularly characterized and representative plants with variable copy number were subsequently transplanted to individual pots and sprayed with various rates of commercial glyphosate as previously described. The response of these plants is presented in terms of % visual injury 2 weeks after treatment (WAT). […] An arithmetic mean and standard deviation is presented for each construct used for Arabidopsis transformation. The range in individual response is also indicated in the last column for each rate and transformation. Wild-type, non-transformed Arabidopsis (c.v. Columbia) served as a glyphosate sensitive control.
T2Arabidopsis Data. The second generation plants (T2) of selected T1 Arabidopsis events which contained low copy numbers of the dgt-28 transgene were further characterized for glyphosate tolerance. Glyphosate was applied as described previously. The response of the plants is presented in terms of % visual injury 2 weeks after treatment (WAT). […] An arithmetic mean and standard deviation are presented for each construct used for Arabidopsis transformation. The range in individual response is also indicated in the last column for each rate and transformation. Wild-type, non-transformed Arabidopsis (cv. Columbia) served as a glyphosate sensitive control. In the T2 generation hemizygous and homozygous plants were available for testing for each event and therefore were included for each rate of glyphosate tested. Hemizygous plants contain two different alleles at a locus as compared to homozygous plants which contain the same two alleles at a locus. Variability of response to glyphosate is expected in the T2 generation as a result of the difference in gene dosage for hemizygous as compared to homozygous plants. The variability in response to glyphosate is reflected in the standard deviation and range of response.
T3 Arabidopsis Data. The third generation plants (T3) of selected T2 Arabidopsis events which contained low copy numbers of the dgt-28 transgene were further characterized for glyphosate tolerance. […] Glyphosate was applied as described previously. The response of the plants is presented in terms of % visual injury 2 weeks after treatment (WAT). […] An arithmetic mean and standard deviation are presented for each construct used for Arabidopsis transformation. The range in individual response is also indicated in the last column for each rate and transformation. Wild-type, non-transformed Arabidopsis (cv. Columbia) served as a glyphosate-sensitive control.

[1] = Table 8, T1 Arabidopsis, 105 g ae/ha glyphosate
[2] = Table 8, T1 Arabidopsis, 420 g ae/ha glyphosate
[3] = Table 8, T1 Arabidopsis, 1680 g ae/ha glyphosate
[4] = Table 8, T1 Arabidopsis, 3360 g ae/ha glyphosate
[5] = Table 10, T1 Arabidopsis, 1,680 g ae/ha glyphosate

B1: pDAB107527: TraP4 v2 - dgt-28 v5: binary construct TraP4 v2:dgt-28 v5 (SEQ ID NO:32) (nucleic acid)
DNA: ATGCTTGCTAGACAAGGTGGAAGTCTGAGAGCTTCTCAATGCAACGCTGGACTTGCTAGAAGAGTTGAAGTTGGTGCTCTTGTTGTTCCTAGACCTATCTCTGTTAACGACGTTGTTCCTCACGTTTACTCTGCTCCACTTTCTGTTGCTAGAAGGTCTTGCTCTAAGTCCTCCATTAGGTCCACTAGAAGGCTTCAAACTACTGTGTGCTCTGCTGCAAGAGGGATGCCAGCCTTGTCTTTACCTGGATCAAAGAGTATCACAGCTAGGGCACTCTTTCTTGCTGCTGCTGCTGATGGGGTTACTACTTTGGTGAGGCCATTGAGAAGTGACGACACAGAAGGATTCGCTGAGGGGTTAGTTCGTTTAGGCTATCGTGTAGGGAGGACACCCGATACTTGGCAAGTCGATGGCAGACCACAAGGACCAGCAGTGGCTGAGGCTGACGTCTACTGTAGAGACGGAGCAACCACCGCTAGATTCTTGCCAACCTTAGCAGCTGCTGGTCACGGAACATACAGATTTGATGCTTCACCACAGATGAGGAGACGTCCTCTTTTGCCCTTAAGCAGAGCCTTGAGGGATTTGGGTGTCGATCTTAGACACGAAGAAGCTGAAGGTCATCACCCTCTGACTGTCCGTGCTGCTGGGGTTGAAGGAGGAGAGGTTACTTTGGATGCTGGTCAGTCAAGTCAGTATCTCACTGCCTTGTTGCTCCTTGGTCCCCTTACAAGACAAGGACTGAGGATAAGGGTTACTGATTTGGTGTCAGCACCATACGTGGAGATTACGCTTGCAATGATGAGGGCTTTCGGAGTTGAAGTGGCAAGGGAGGGAGATGTGTTCGTTGTTCCACCTGGTGGATATCGTGCAACTACGTATGCTATAGAACCCGACGCAAGTACTGCTTCTTACTTCTTCGCAGCTGCTGCTTTGACTCCTGGAGCTGAAGTGACTGTACCTGGGTTAGGCACGGGAGCACTTCAAGGAGATTTGGGATTTGTAGATGTCTTAAGGAGAATGGGAGCCGAGGTGTCCGTAGGAGCTGATGCAACCACTGTTAGAGGAACTGGTGAATTGCGTGGCCTTACAGCCAACATGAGAGACATAAGTGATACGATGCCGACCCTCGCTGCAATAGCACCCTTTGCTAGTGCTCCAGTTAGAATCGAGGATGTTGCCAACACTCGTGTCAAAGAATGTGACAGACTTGAGGCTTGTGCAGAGAACCTTAGGAGGTTGGGAGTAAGGGTTGCAACGGGTCCGGACTGGATTGAGATACACCCTGGTCCAGCTACTGGTGCTCAAGTCACAAGCTATGGTGATCACAGAATTGTGATGTCATTTGCAGTGACTGGACTTCGTGTGCCTGGGATCAGCTTCGACGACCCTGGCTGTGTTCGTAAGACTTTTCCTGGGTTTCACGAGGCTTTCGCAGAATTGAGGCGTGGCATTGGGAGCTGA
modifications: In-frame fusion of dgt-28 v5 and TraP4 v2
With B1 the “% Injury Ave” value [1] was 3.8%, the “% Injury Range (%)” value [1] was 0-15% and the “No. plants with 20-40% injury” value [1] was 0. For the same molecule, the “No. plants with <20% injury” value [1] was 4, the “No. plants with >40% injury” value [1] was 0 and the “% Injury Ave” value [2] was 28.8%. The “% Injury Range (%)” value [2] was 0-65%, the “No. plants with 20-40% injury” value [2] was 1 and the “No. plants with <20% injury” value [2] was 2. For the same molecule, the “No. plants with >40% injury” value [2] was 1, the “% Injury Ave” value [3] was 55.0% and the “% Injury Range (%)” value [3] was 35-85%. For the same molecule, the “No. plants with 20-40% injury” value [3] was 2, the “No. plants with <20% injury” value [3] was 0 and the “No. plants with >40% injury” value [3] was 2. The “% Injury Ave” value [4] was 43.8%, the “% Injury Range (%)” value [4] was 30-70% and the “No. plants with 20-40% injury” value [4] was 2. For the same molecule, the “No. plants with <20% injury” value [4] was 0, the “No. plants with >40% injury” value [4] was 2 and the “% Injury Ave” value [5] was 55.0%. The “% Injury Range (%)” value [5] was 35-85%, the “No. plants with 20-40% injury” value [5] was 2 and the “No. plants with <20% injury” value [5] was 0. For the same molecule, the “No. plants with >40% injury” value [5] was 2.
